Reference: patent publication US20240392004A1 (IMMUNOWAKE, published 2024)

T1: human IL-2 receptor (IL-2Rα, IL-2Rβ, IL-2Rγ) (human, UniProt P01589 22-272; P14784 27-551; P31785 23-369)
T1 sequence (looked up) 1: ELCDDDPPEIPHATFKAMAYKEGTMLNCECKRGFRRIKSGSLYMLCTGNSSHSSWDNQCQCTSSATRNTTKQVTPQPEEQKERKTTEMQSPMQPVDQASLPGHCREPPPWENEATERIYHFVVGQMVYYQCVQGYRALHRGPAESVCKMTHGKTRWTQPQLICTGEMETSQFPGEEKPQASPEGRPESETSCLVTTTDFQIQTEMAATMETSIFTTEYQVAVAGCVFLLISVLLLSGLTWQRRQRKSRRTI
T1 sequence (looked up) 2: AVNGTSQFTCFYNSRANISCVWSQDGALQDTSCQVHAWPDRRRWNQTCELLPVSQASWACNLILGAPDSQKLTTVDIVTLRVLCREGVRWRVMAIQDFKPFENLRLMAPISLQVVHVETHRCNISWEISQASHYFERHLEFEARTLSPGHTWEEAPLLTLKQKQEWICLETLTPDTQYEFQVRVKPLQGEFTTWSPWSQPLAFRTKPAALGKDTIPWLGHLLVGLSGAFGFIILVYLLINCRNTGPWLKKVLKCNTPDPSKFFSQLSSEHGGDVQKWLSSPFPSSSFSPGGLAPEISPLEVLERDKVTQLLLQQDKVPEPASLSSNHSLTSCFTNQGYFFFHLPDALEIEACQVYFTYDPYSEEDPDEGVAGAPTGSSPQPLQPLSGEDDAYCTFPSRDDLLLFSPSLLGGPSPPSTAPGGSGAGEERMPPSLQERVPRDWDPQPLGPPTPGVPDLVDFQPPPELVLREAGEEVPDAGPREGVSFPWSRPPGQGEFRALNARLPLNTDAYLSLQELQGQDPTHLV
T1 sequence (looked up) 3: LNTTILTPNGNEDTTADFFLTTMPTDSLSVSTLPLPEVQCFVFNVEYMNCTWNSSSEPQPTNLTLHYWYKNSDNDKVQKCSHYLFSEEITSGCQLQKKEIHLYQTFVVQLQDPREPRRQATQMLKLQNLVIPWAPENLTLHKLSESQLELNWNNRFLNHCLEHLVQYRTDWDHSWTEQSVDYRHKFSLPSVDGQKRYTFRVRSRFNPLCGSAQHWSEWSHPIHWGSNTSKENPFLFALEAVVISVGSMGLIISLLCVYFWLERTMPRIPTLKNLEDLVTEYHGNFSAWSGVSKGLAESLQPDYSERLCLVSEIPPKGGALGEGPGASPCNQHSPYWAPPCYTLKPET

T2: human TIGIT on HEK-Blue reporter cells (human, UniProt Q495A1 22-244)
T2 sequence (looked up): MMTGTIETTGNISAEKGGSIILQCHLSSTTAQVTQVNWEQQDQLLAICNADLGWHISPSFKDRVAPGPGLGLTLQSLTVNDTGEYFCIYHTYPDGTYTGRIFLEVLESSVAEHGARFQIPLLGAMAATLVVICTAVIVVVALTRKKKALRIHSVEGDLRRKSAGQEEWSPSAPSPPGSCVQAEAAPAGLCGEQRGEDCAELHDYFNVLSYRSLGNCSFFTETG


Tests used:
[1] = biological target: T1, human IL-2 receptor (IL-2Rα, IL-2Rβ, …); experiment: cell-based or functional assay
[2] = biological target: T2, human TIGIT on HEK-Blue reporter cells; experiment: cell-based or functional assay

Row | Binder | IL-2 signal transduction, HEK-IL-2 [1] [%] | IL-2 signal transduction, HEK-IL-2-TIGIT [2] [%]
1 | IL-2(R38D/K43E/E61R/Q126T)/CD155-Fc (Fc fusion) chain 1: WPPPGTGDVVVQAPTQVPGFLGDSVTLPCYLQVPNMEVTHVSQLTWARHGESGSMAVFHQTQGPSYSESKRLEFVAARLGAELRNASLRMFGLRVEDEGNYTCLFVTFPQGSRSVDIWLRVLAKPQNTAEVQKVQLTGEPVPMARCVSTGGRPPAQITWHSDLGGMPNTSQVPGFLSGTVTVTSLWILVPSSQVDGKNVTCKVEHESFEKPQLLTVNLTVYYPPEVSISGYDNNWYLGQNEATLTCDARSNPEPTGYNWSTTMGPLPPFAVAQGAQLLIRPVDKPINTTLICNVTNALGARQAELTVQVKEGPPSEHSGISRNGGGGSGGGDKTHTCPPCPAPEDEGGPSVFLFPPKPKDTLMISRTPEVTCVVVDVSHEDPEVKFNWYVDGVEVHNAKTKPREEQYNSTYRVVSVLTVLHQDWLNGKEYKCKVSNKALPAPIEKTISKAKGQPREPQVYVYPPSREEMTKNQVSLTCLVKGFYPSDIAVEWESNGQPENNYKTTPPVLDEDGSFALVSKLTVDKSRWQQGNVFSCSVMHEALHNHYTQKSLSLSPGK chain 2: WPPPGTGDVVVQAPTQVPGFLGDSVTLPCYLQVPNMEVTHVSQLTWARHGESGSMAVFHQTQGPSYSESKRLEFVAARLGAELRNASLRMFGLRVEDEGNYTCLFVTFPQGSRSVDIWLRVLAKPQNTAEVQKVQLTGEPVPMARCVSTGGRPPAQITWHSDLGGMPNTSQVPGFLSGTVTVTSLWILVPSSQVDGKNVTCKVEHESFEKPQLLTVNLTVYYPPEVSISGYDNNWYLGQNEATLTCDARSNPEPTGYNWSTTMGPLPPFAVAQGAQLLIRPVDKPINTTLICNVTNALGARQAELTVQVKEGPPSEHSGISRNGGGSGAPTSSSTKKTQLQLEHLLLDLQMILNGINNYKNPKLTDMLTFEFYMPKKATELKHLQCLERELKPLEEVLNLAQSKNFHLRPRDLISNINVIVLELKGSETTFMCEYADETATIVEFLNRWITFCTSIISTLTGGGGSGGGDKTHTCPPCPAPEKKGGPSVFLFPPKPKDTLMISRTPEVTCVVVDVSHEDPEVKFNWYVDGVEVHNAKTKPREEQYNSTYRVVSVLTVLHQDWLNGKEYKCKVSNKALPAPIEKTISKAKGQPREPQVYVLPPSREEMTKNQVSLLCLVKGFYPSDIAVEWESNGQPENRYMTWPPVLDSDGSFFLYSKLTVDKSRWQQGNVFSCSVMHEALHNHYTQKSLSLSPGK | 3 | 29
2 | IL-2(L18R/Q22E/R38D/K43E/E61R/Q126T)/CD155-Fc (Fc fusion) chain 1: WPPPGTGDVVVQAPTQVPGFLGDSVTLPCYLQVPNMEVTHVSQLTWARHGESGSMAVFHQTQGPSYSESKRLEFVAARLGAELRNASLRMFGLRVEDEGNYTCLFVTFPQGSRSVDIWLRVLAKPQNTAEVQKVQLTGEPVPMARCVSTGGRPPAQITWHSDLGGMPNTSQVPGFLSGTVTVTSLWILVPSSQVDGKNVTCKVEHESFEKPQLLTVNLTVYYPPEVSISGYDNNWYLGQNEATLTCDARSNPEPTGYNWSTTMGPLPPFAVAQGAQLLIRPVDKPINTTLICNVTNALGARQAELTVQVKEGPPSEHSGISRNGGGGSGGGDKTHTCPPCPAPEDEGGPSVFLFPPKPKDTLMISRTPEVTCVVVDVSHEDPEVKFNWYVDGVEVHNAKTKPREEQYNSTYRVVSVLTVLHQDWLNGKEYKCKVSNKALPAPIEKTISKAKGQPREPQVYVYPPSREEMTKNQVSLTCLVKGFYPSDIAVEWESNGQPENNYKTTPPVLDEDGSFALVSKLTVDKSRWQQGNVFSCSVMHEALHNHYTQKSLSLSPGK chain 2: WPPPGTGDVVVQAPTQVPGFLGDSVTLPCYLQVPNMEVTHVSQLTWARHGESGSMAVFHQTQGPSYSESKRLEFVAARLGAELRNASLRMFGLRVEDEGNYTCLFVTFPQGSRSVDIWLRVLAKPQNTAEVQKVQLTGEPVPMARCVSTGGRPPAQITWHSDLGGMPNTSQVPGFLSGTVTVTSLWILVPSSQVDGKNVTCKVEHESFEKPQLLTVNLTVYYPPEVSISGYDNNWYLGQNEATLTCDARSNPEPTGYNWSTTMGPLPPFAVAQGAQLLIRPVDKPINTTLICNVTNALGARQAELTVQVKEGPPSEHSGISRNGGGSGAPTSSSTKKTQLQLEHLRLDLEMILNGINNYKNPKLTDMLTFEFYMPKKATELKHLQCLERELKPLEEVLNLAQSKNFHLRPRDLISNINVIVLELKGSETTFMCEYADETATIVEFLNRWITFCTSIISTLTGGGGSGGGDKTHTCPPCPAPEKKGGPSVFLFPPKPKDTLMISRTPEVTCVVVDVSHEDPEVKFNWYVDGVEVHNAKTKPREEQYNSTYRVVSVLTVLHQDWLNGKEYKCKVSNKALPAPIEKTISKAKGQPREPQVYVLPPSREEMTKNQVSLLCLVKGFYPSDIAVEWESNGQPENRYMTWPPVLDSDGSFFLYSKLTVDKSRWQQGNVFSCSVMHEALHNHYTQKSLSLSPGK | 2 | 15

Continued, values first:

Row | IL-2 signal transduction, HEK-IL-2 [1] [%] | IL-2 signal transduction, HEK-IL-2-TIGIT [2] [%] | Binder
3 | < 0.1 | < 0.1 | CD155-Fc (control) (Fc fusion) chain 1: WPPPGTGDVVVQAPTQVPGFLGDSVTLPCYLQVPNMEVTHVSQLTWARHGESGSMAVFHQTQGPSYSESKRLEFVAARLGAELRNASLRMFGLRVEDEGNYTCLFVTFPQGSRSVDIWLRVLAKPQNTAEVQKVQLTGEPVPMARCVSTGGRPPAQITWHSDLGGMPNTSQVPGFLSGTVTVTSLWILVPSSQVDGKNVTCKVEHESFEKPQLLTVNLTVYYPPEVSISGYDNNWYLGQNEATLTCDARSNPEPTGYNWSTTMGPLPPFAVAQGAQLLIRPVDKPINTTLICNVTNALGARQAELTVQVKEGPPSEHSGISRNGGGGSGGGDKTHTCPPCPAPEDEGGPSVFLFPPKPKDTLMISRTPEVTCVVVDVSHEDPEVKFNWYVDGVEVHNAKTKPREEQYNSTYRVVSVLTVLHQDWLNGKEYKCKVSNKALPAPIEKTISKAKGQPREPQVYVYPPSREEMTKNQVSLTCLVKGFYPSDIAVEWESNGQPENNYKTTPPVLDEDGSFALVSKLTVDKSRWQQGNVFSCSVMHEALHNHYTQKSLSLSPGK chain 2: WPPPGTGDVVVQAPTQVPGFLGDSVTLPCYLQVPNMEVTHVSQLTWARHGESGSMAVFHQTQGPSYSESKRLEFVAARLGAELRNASLRMFGLRVEDEGNYTCLFVTFPQGSRSVDIWLRVLAKPQNTAEVQKVQLTGEPVPMARCVSTGGRPPAQITWHSDLGGMPNTSQVPGFLSGTVTVTSLWILVPSSQVDGKNVTCKVEHESFEKPQLLTVNLTVYYPPEVSISGYDNNWYLGQNEATLTCDARSNPEPTGYNWSTTMGPLPPFAVAQGAQLLIRPVDKPINTTLICNVTNALGARQAELTVQVKEGPPSEHSGISRNGGGGSGGGDKTHTCPPCPAPEKKGGPSVFLFPPKPKDTLMISRTPEVTCVVVDVSHEDPEVKFNWYVDGVEVHNAKTKPREEQYNSTYRVVSVLTVLHQDWLNGKEYKCKVSNKALPAPIEKTISKAKGQPREPQVYVLPPSREEMTKNQVSLLCLVKGFYPSDIAVEWESNGQPENRYMTWPPVLDSDGSFFLYSKLTVDKSRWQQGNVFSCSVMHEALHNHYTQKSLSLSPGK
4 | 9 | 56 | IL-2(L18R/Q22E/R38D/K43E/E61R)/CD155-Fc (Fc fusion) chain 1: WPPPGTGDVVVQAPTQVPGFLGDSVTLPCYLQVPNMEVTHVSQLTWARHGESGSMAVFHQTQGPSYSESKRLEFVAARLGAELRNASLRMFGLRVEDEGNYTCLFVTFPQGSRSVDIWLRVLAKPQNTAEVQKVQLTGEPVPMARCVSTGGRPPAQITWHSDLGGMPNTSQVPGFLSGTVTVTSLWILVPSSQVDGKNVTCKVEHESFEKPQLLTVNLTVYYPPEVSISGYDNNWYLGQNEATLTCDARSNPEPTGYNWSTTMGPLPPFAVAQGAQLLIRPVDKPINTTLICNVTNALGARQAELTVQVKEGPPSEHSGISRNGGGGSGGGDKTHTCPPCPAPEDEGGPSVFLFPPKPKDTLMISRTPEVTCVVVDVSHEDPEVKFNWYVDGVEVHNAKTKPREEQYNSTYRVVSVLTVLHQDWLNGKEYKCKVSNKALPAPIEKTISKAKGQPREPQVYVYPPSREEMTKNQVSLTCLVKGFYPSDIAVEWESNGQPENNYKTTPPVLDEDGSFALVSKLTVDKSRWQQGNVFSCSVMHEALHNHYTQKSLSLSPGK chain 2: WPPPGTGDVVVQAPTQVPGFLGDSVTLPCYLQVPNMEVTHVSQLTWARHGESGSMAVFHQTQGPSYSESKRLEFVAARLGAELRNASLRMFGLRVEDEGNYTCLFVTFPQGSRSVDIWLRVLAKPQNTAEVQKVQLTGEPVPMARCVSTGGRPPAQITWHSDLGGMPNTSQVPGFLSGTVTVTSLWILVPSSQVDGKNVTCKVEHESFEKPQLLTVNLTVYYPPEVSISGYDNNWYLGQNEATLTCDARSNPEPTGYNWSTTMGPLPPFAVAQGAQLLIRPVDKPINTTLICNVTNALGARQAELTVQVKEGPPSEHSGISRNGGGSGAPTSSSTKKTQLQLEHLRLDLEMILNGINNYKNPKLTDMLTFEFYMPKKATELKHLQCLERELKPLEEVLNLAQSKNFHLRPRDLISNINVIVLELKGSETTFMCEYADETATIVEFLNRWITFCQSIISTLTGGGGSGGGDKTHTCPPCPAPEKKGGPSVFLFPPKPKDTLMISRTPEVTCVVVDVSHEDPEVKFNWYVDGVEVHNAKTKPREEQYNSTYRVVSVLTVLHQDWLNGKEYKCKVSNKALPAPIEKTISKAKGQPREPQVYVLPPSREEMTKNQVSLLCLVKGFYPSDIAVEWESNGQPENRYMTWPPVLDSDGSFFLYSKLTVDKSRWQQGNVFSCSVMHEALHNHYTQKSLSLSPGK
